Assay results from patent US20250034266A1 (ZAI LAB SHANGHAI, published 2025).

Columns and labels:
[1] = biological target: T1, human CCR8 (human, UniProt P51685 1-355); experiment: flow cytometry on TALL-1 cells (endogenous CCR8)
T1 construct: whole, on cells; also called hCCR8; CHO-K1-human CCR8
Experimental: Briefly, a total of 5×10⁴ cells for each well were seeded in 96-well plates and washed with FACS buffer (DPBS containing 1.5% FBS) for once. Antibodies were prepared with 3-fold serial dilution ranging from 100 nM to 0.00508 nM in FACS buffer. Cells were incubated with 50 μL of diluted antibodies at 4° C. for 40 minutes. After primary antibody incubation, cells were washed twice by FACS buffer. Then, cells were stained by Alexa Flu647-labeled anti-human IgG Fc secondary antibody (Jackson ImmunoResearch, #109606170) at 1:500 dilution in FACS buffer for 40 minutes at 4° C. After 2 times wash with FACS buffer, flow cytometry (BD FACS Celesta) was performed to measure the binding affinities of antibodies.
T1 sequence (P51685 whole entry): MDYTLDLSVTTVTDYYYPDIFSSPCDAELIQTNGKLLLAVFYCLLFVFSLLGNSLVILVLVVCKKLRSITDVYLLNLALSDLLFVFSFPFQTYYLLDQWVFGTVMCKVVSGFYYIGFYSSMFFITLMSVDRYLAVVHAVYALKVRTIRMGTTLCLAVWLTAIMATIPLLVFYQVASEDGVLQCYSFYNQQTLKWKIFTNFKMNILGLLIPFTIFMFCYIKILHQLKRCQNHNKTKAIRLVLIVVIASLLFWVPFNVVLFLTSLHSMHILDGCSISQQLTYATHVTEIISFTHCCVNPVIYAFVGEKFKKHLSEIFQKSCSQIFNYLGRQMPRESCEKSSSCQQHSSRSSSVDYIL

[2] = biological target: T1, human CCR8; experiment: cell-based or functional assay
[3] = biological target: T1, human CCR8; experiment: cell-based or functional assay; remark: listed apart in the source
[4] = biological target: T1, human CCR8; experiment: cell-based or functional assay; remark: listed apart in the source
[5] = biological target: human CCR8 tagged with ProLink (PK) (human, UniProt P51685 1-355); experiment: cell-based or functional assay
[6] = biological target: T2, human CCR8 (human, UniProt P51685 1-355); experiment: cell-based or functional assay; remark: listed apart in the source
T2 sequence (P51685 whole entry): as above

[7] = biological target: T2, human CCR8; experiment: cell-based or functional assay; remark: listed apart in the source

Sequence of human CCR8 tagged with ProLink (PK) (P51685 whole entry): as above

Binder | EC50 [1] | EC50, ADCC with human PBMCs (LDH release), target TALL-1 cells [2] | EC50, ADCC with human PBMCs, target CHO-K1-human CCR8 cells [3] | Max specific lysis (%), ADCC with human PBMCs, target CHO-K1-human CCR8 cells [3] | EC50, ADCC reporter, F variant CD16a/NFAT-Jurkat, target CHO-K1-human CCR8 cells [4] | EC50, ADCC reporter, F variant CD16a/NFAT-Jurkat, target HuT78 cells [4] | EC50, ADCC reporter, V variant CD16a/NFAT-Jurkat, target CHO-K1-human CCR8 cells [4] | EC50, ADCC reporter, V variant CD16a/NFAT-Jurkat, target HuT78 cells [4] | Max (RLU), ADCC reporter, F variant CD16a/NFAT-Jurkat, target CHO-K1-human CCR8 cells [4] | Max (RLU), ADCC reporter, F variant CD16a/NFAT-Jurkat, target HuT78 cells [4] | Max (RLU), ADCC reporter, V variant CD16a/NFAT-Jurkat, target CHO-K1-human CCR8 cells [4] | Max (RLU), ADCC reporter, V variant CD16a/NFAT-Jurkat, target HuT78 cells [4] | IC50, inhibition of CCL1 induced β-Arrestin recruitment, CHO-K1-human CCR8 β-Arrestin cells [5] | IC50, inhibition of CCL1 induced β-Arrestin recruitment [6] | IC50, blocking of CCL1 induced cell migration [7]
TPP21360 (antibody, V domains shown) VH: EVQLLESGGGLVQPGGSLRLSCAASGFTFSSYGMHWVRQAPGKGLEWVSAINWNGGSTGYADSVKGRFTISRDNSKNTLYLQMNSLRAEDTAVYYCARGHHSGYDGRFFDYWGQGTLVTVSS VL: QSVLTQPPSVSGAPGQRVTISCTGSSSNIGAGYNVHWYQQLPGTAPKLLIYTNNRRPSGVPDRFSGSKSGTSASLAISGLRSEDEADYYCAAWDASLSGWVFGGGTKLTVLG | 461 pM | 553 pM | – | – | – | – | – | – | – | – | – | – | – | – | –
Hu149-11G1m (antibody, human IgG1, also called Hu149-11G1m (ADCC enhanced variant with L235V/F243L/R292P/Y300L/P396L Fc mutations)) heavy: EVQLVESGGGLVQPGGSLKLSCAASGFTFNTYAMNWVRQASGKGLEWVGRIRSKSNFYATAYAASVKGRFTISRDDSKNTAYLQMNSLKTEDTAVYYCTRGREYGSSYAMDYWGQGTLVTVSSASTKGPSVFPLAPSSKSTSGGTAALGCLVKDYFPEPVTVSWNSGALTSGVHTFPAVLQSSGLYSLSSVVTVPSSSLGTQTYICNVNHKPSNTKVDKKVEPKSCDKTHTCPPCPAPELVGGPSVFLLPPKPKDTLMISRTPEVTCVVVDVSHEDPEVKFNWYVDGVEVHNAKTKPPEEQYNSTLRVVSVLTVLHQDWLNGKEYKCKVSNKALPAPIEKTISKAKGQPREPQVYTLPPSRDELTKNQVSLTCLVKGFYPSDIAVEWESNGQPENNYKTTPLVLDSDGSFFLYSKLTVDKSRWQQGNVFSCSVMHEALHNHYTQKSLSLSPGK VL: DIVMTQSPLSLPVTPGEPASISCRSSKSLLHSNANTYLYWFLQKPGQSPQLLIYRMSNLASGVPDRFSGSGSGTDFTLKISRVEAEDVGVYYCMQHLEYPLTFGGGTKVELK | 328 pM | 0.682 pM | 0.085 pM | 46.6% | 5.6 pM | 16.4 pM | 7.25 pM | 20.3 pM | 8.28e+06 RLU | 1.59e+07 RLU | 3.93e+06 RLU | 8.7e+06 RLU | 2090 pM | – | –
Hu149-9 mIgG2a (antibody, V domains shown) VH: EVQLVESGGGLVQPGGSLKLSCAASGFTFNTYAMNWVRQASGKGLEWVGRIRSKSNFYATAYAASVKGRFTISRDDSKNTAYLQMNSLKTEDTAVYYCTRGRDYGSSYAMDYWGQGTLVTVSS VL: DIVMTQSPLSLPVTPGEPASISCRSSKSLLHSNANTYLYWFLQKPGQSPQLLIYRMSNLASGVPDRFSGSGSGTDFTLKISRVEAEDVGVYYCMQHLEYPLTFGGGTKVELK | – | – | – | – | – | – | – | – | – | – | – | – | – | 8640 pM | 1920 pM
Hu149-12G1m (antibody, human IgG1) heavy: EVQLVESGGGLVQPGGSLKLSCAASGFTFNTYAMNWVRQASGKGLEWVGRIRSKSNFYATAYAASVKGRFTISRDDSKNTAYLQMNSLKTEDTAVYYCTRGKEYGSSYAMDYWGQGTLVTVSSASTKGPSVFPLAPSSKSTSGGTAALGCLVKDYFPEPVTVSWNSGALTSGVHTFPAVLQSSGLYSLSSVVTVPSSSLGTQTYICNVNHKPSNTKVDKKVEPKSCDKTHTCPPCPAPELVGGPSVFLLPPKPKDTLMISRTPEVTCVVVDVSHEDPEVKFNWYVDGVEVHNAKTKPPEEQYNSTLRVVSVLTVLHQDWLNGKEYKCKVSNKALPAPIEKTISKAKGQPREPQVYTLPPSRDELTKNQVSLTCLVKGFYPSDIAVEWESNGQPENNYKTTPLVLDSDGSFFLYSKLTVDKSRWQQGNVFSCSVMHEALHNHYTQKSLSLSPGK VL: DIVMTQSPLSLPVTPGEPASISCRSSKSLLHSNANTYLYWFLQKPGQSPQLLIYRMSNLASGVPDRFSGSGSGTDFTLKISRVEAEDVGVYYCMQHLEYPLTFGGGTKVELK | – | – | 0.136 pM | 44.2% | 4.05 pM | 8.69 pM | 5.6 pM | 11.4 pM | 8.18e+06 RLU | 1.48e+07 RLU | 3.94e+06 RLU | 8.64e+06 RLU | 1160 pM | – | –
